# In publication PMC12743511, “HSD17β11 regulates PLIN5-ATGL mediated lipolysis, but not hepatic lipid metabolism in mice” (Journal of Lipid Research, 2025):
# T1: PLIN5-CFP (perilipin 5 fused to CFP) (UniProt Q00G26 1-463)
# T1 construct: perilipin 5 (PLIN5); FRET donor; source: transiently transfected (Lipofectamine 3000), in live cells
# T1 sequence (looked up): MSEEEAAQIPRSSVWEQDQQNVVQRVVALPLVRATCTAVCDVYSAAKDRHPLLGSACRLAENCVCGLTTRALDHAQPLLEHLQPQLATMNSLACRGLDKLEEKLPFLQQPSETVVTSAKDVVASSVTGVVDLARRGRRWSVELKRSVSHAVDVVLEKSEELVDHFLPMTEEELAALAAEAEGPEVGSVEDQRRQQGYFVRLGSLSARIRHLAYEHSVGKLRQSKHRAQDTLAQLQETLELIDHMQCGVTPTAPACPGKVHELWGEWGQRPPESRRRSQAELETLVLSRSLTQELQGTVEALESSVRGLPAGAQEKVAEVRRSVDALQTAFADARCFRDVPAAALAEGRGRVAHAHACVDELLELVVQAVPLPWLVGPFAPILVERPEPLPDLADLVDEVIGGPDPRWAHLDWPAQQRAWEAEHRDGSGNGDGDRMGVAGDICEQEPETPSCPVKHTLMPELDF
# B1: HSD17β11-YFP (hydroxysteroid 17β dehydrogenase 11 fused to YFP) (natural protein, UniProt Q8NBQ5 1-300, looked up)
# chain: MKFLLDILLLLPLLIVCSLESFVKLFIPKRRKSVTGEIVLITGAGHGIGRLTAYEFAKLKSKLVLWDINKHGLEETAAKCKGLGAKVHTFVVDCSNREDIYSSAKKVKAEIGDVSILVNNAGVVYTSDLFATQDPQIEKTFEVNVLAHFWTTKAFLPAMTKNNHGHIVTVASAAGHVSVPFLLAYCSSKFAAVGFHKTLTDELAALQITGVKTTCLCPNFVNTGFIKNPSTSLGPTLEPEEVVNRLMHGILTEQKMIFIPSSIAFLTTLERILPERFLAVLKRKISVKFDAVIGYKMKAQ
# notes: hydroxysteroid 17β dehydrogenase 11 (HSD17β11), wild type; FRET acceptor; also called HSD^WT-YFP; source: transiently transfected (Lipofectamine 3000), in live cells
# Target: T1, PLIN5-CFP (perilipin 5 fused to CFP)
# Assay: FRET or BRET; FLIM-FRET with phasor analysis in live transfected cells, CFP donor and YFP acceptor, 37°C, 5% CO2; basal and forskolin (PKA) stimulated; ATGL-CFP with PLIN5-YFP in WT and HSD^KO cells; read-out FRET ratio (pixels with FRET / pixels without)
# Details: partners not purified
binder,measurement,value
B1,fold increase in FRET ratio over donor alone,2.5 fold
